Data on 2 substances can be found in publication PMC4368098.

Data set [1] addresses DICER (human) (UniProt Q9UPY3).
Data set [2] addresses DICER;ARGONAUTE2 (AGO2) (human;human) (UniProt Q9UPY3+Q9UKV8). Briefly: competition (fluorogenic siRNA processing). Particulars: 80 nM BoPsi664, 30 nM each enzyme; Assay Buffer with 1 mM free Mg2+ (full composition not in the material), 37 C; indirect read-out by competitive inhibition of fluorogenic siRNA processing, no ….

“ARGONAUTE2 (from UniProt Q9UKV8 1-859) (enzyme)”: in data set [1], the K d,app from a Morrison-equation fit of enzymatic activity: DICER (25 nM) titrated with AGO2, fluorogenic DICER substrate BoGD664 (250 nM), 37°C came to 2.2 nM; the K d,app from a Morrison-equation fit of enzymatic activity: DICER (25 nM) titrated with AGO2, fluorogenic DICER substrate BoPD664 (250 nM), 37°C was 0.54 nM; the molar ratio AGO2:DICER at which enzymatic activity on DICER substrates stops rising (titration of DICER, 25 nM, with AGO2) (molar ratio AGO2:DICER) was 1.
As a reminder, the IC50 is the midpoint of a concentration-inhibition curve. Regarding AllStars Negative Control siRNA, the IC50 in data set [2] is 209 nM.
